# Data: the nanobody polyreactivity screen of Harvey et al. (2022)
# Test: yeast display, Sf9 membrane polyspecificity reagent, FACS + sequencing; frameworks hold sequencing errors
# How it was run: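 After 36–48 hours of galactose induction, yeast (Saccharomyces cerevisiae BJ5465) displaying a synthetic nanobody library were stained at 4 °C for 1 hour with 10% biotinylated, detergent-solubilized Sf9 membrane reagent. Streptavidin microbeads enriched the stained cells before FACS sorting into low and high (top ~1%) gates on anti-HA and streptavidin fluorescence. Each clone's polyreactivity label reflects its gate of origin.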
row,Sequence,polyreactivity (PSR sort gate)
1,QVQLVESGGGLVEAGGSLRLTCAASGYIIGGNAMGWYRQAPGKERELVAVISSRGGRTYYSDSVKGRFTISRDNAKNTVYLQLNSLKPEDTEVYYCYRVFSYQYKRDYWGQGTQVTVSS,high polyreactivity
2,QVQLVESGGGLVEAGGSLSLTCAASGRPFQYYAMRWYRPAPGKEREFVAAITRTGARTYYAVSVKGRFTISRDNAKNTVYLQMNSLKPEATAVYYCAKSLTFYSWRDYGYWGQGTQVTVSS,high polyreactivity
3,QVQLVESGGGLVHAGCSLRLSCAASGNIFYAYAMGWYRQAPGKERELVAAISWSGDSTYYADSVKGRFTISRDNAKNTVYLQMNSLKPEDTAVYYCAARKVTYHYQWMDYWGQGSQVTVSS,low polyreactivity
4,QVQLVESGGGLVHAGCSLRLSCAASGSTYVPYAMGWYRQAPGRERELVADISWSGGSTYYADSVKGRFTISRDNGKNTVFLQMNSLKPEDTAVYYCAATRTKGKFDYWGQGTQVTVSS,high polyreactivity
5,QVQLVESGGGLVHAGGCLRISCAASGRIFWYNEMGWYRQATGKERELVADITPRGTRTHYADSVKGRFTISRDNAKNTVYLQMNSLKPEDPGVYYCAKGWYTVDWDAPVFSERGEYWGQGSQVTVSS,low polyreactivity
6,QVQLVESGGGLVHAGGILRLSCAASGFIFWSYAKGWYRQAPGKERELFAAIDLSGGSTYYADSVKGRFTISRDNAKNTVYLQLNSLKPEDTAVYYCNADGDTYAFTNSDSGFDYWGQGTQVTVSS,low polyreactivity
7,QVQLVESGGGLVHAGGILRLSSPASGSTIRYYAMGWYRQAPGKESQLVAVISTSGNTYYADSVKGRFTISRDNAKNTVYLQMNSLKPEDTAVYYCAARGVGGQISQEYDYWGQGTQVTVSS,low polyreactivity
8,QVQLVESGGGLVHAGGRLRLSCAASGRIFFYYAMGWYRQAPGKERELVAAISQSGGSTYYADSVKGRFTISRDNAKNTVYLQMNSLKPEDTSVYYCNAADPYYVTSAVAGDYWGQGTQVTVSS,low polyreactivity
9,QVQLVESGGGLVHAGGRLRLSCTASGGIFRYYAMGWYRQAPGKERELVAGISRSGGSTHYADSVKGRFTISRDNAKNTVYLQMNSLKPEDTAVYYCAADTYFTKYDYWGQGTQVTVSS,high polyreactivity
10,QVQLVESGGGLVHAGGSHRLSCAASGFTFTFYAMGWYRQAPVKERELVAAIRTSDGRTYYADSVKGRFTISRDNAKNTVYLQMNSLKPEDTAVYYCAAQVYRPRARYYEYDYWGQGTQVTVSS,high polyreactivity
11,QVQLVESGGGLVHAGGSHRLSCAASGSIFDVNAMGWYRPPRGKERELFAAITGTGGSTYYADSVKGRFTISRDNAKNSVYLQMYSLKPDDTSVYDCATVTGVRKYGYWGQGTQVTVSS,high polyreactivity
12,QVQLVESGGGLVHAGGSHRLSCAASGSIFPYYTMGWYRQAPGKEREMVAAISGSGTSTYYADSVKGRFTISRDNAKNTVYLQMNSLKPEDTAVYYCAADFRYYVTSLKYDYWGQGTQVTVSS,low polyreactivity
13,QVQLVESGGGLVHAGGSLLLSCAASGRTLGWYAMGWYIQAPGKERELVATISITGGSTYYAVSVKGRFTISRDYAKNTVYLQMNSLKPEDTAVYYCAARHGSRRRYYYWGQGTQVTVSS,high polyreactivity
14,QVQLVESGGGLVHAGGSLRISCAASGRIFYKYAMAWYRQAPGKERELVAAISTRGGSTYYADSVKWRFTISRDIAKNTVYSQMNSLKPEDTAVYYCAALSAYGYDYCGQGTQVTVSS,high polyreactivity
15,QVQLVESGGGLVHAGGSLRISCAASGRTFLPYTMGGYRQAHGSERELVADITTSDGSTYYADSVKGRFTISRDYAKNTVYLQMNSLKPEDTAVFYCAAESPWFWAVFDYWGQGTQVTVSS,high polyreactivity
16,QVQLVESGGGLVHAGGSLRISCAASGRTFQRNAMGWYRQAPGKERELVAAISGGGSTYYADSVKGRFTISRDNAKNTVYLQMNSLKPEDTAVYYCAASSATRLYYFSRGYDYWGQGTQVTVSS,low polyreactivity
